These results are taken from publication PMC8189464, “SARS-CoV-2 Envelope (E) protein interacts with PDZ-domain-2 of host tight junction protein ZO1” (PLoS ONE, 2021).

The target of the experiment is T1, GST-PDZ domain #2 of human Zona Occludens-1 (ZO1) (human, UniProt Q07157 186-264).
T1 construct: second PDZ domain (PDZ domain #2) of human Zona Occludens-1 (ZO1), from plasmid pGEX-ZO1-2/3; also called GST-ZO1 PDZ domain #2; GST-ZO1-PDZ-2; source: E. coli BL21(DE3), purified (glutathione-Sepharose 4B); on the array: purified GST fusion protein
T1 sequence (looked up): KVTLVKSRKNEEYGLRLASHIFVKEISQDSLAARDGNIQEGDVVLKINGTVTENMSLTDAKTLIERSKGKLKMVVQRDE
The experiment in a line: AlphaScreen or HTRF; GST protein pre-bound to anti-GST-terbium donor antibody, biotinylated peptide pre-bound to streptavidin-d2 acceptor; serial 1:2 dilutions of both in a matrix; 25 mM HEPES pH 7.4, 150 mM NaCl, 5 mM MgCl2, 0.005% Tween-20; 1 hr incubation; one-site saturation binding fit; Kd at 3 nM GST-ZO1 PDZ domain #2. The note with it: both partners purified.

*: point of attachment. Biotin = O=C1N[C@H]2[C@H](CS[C@H]2CCCCC(=O)*)N1

A word on the Kd: it is the concentration at which binding is half-saturated. Lower therefore signals higher affinity. In turn, Biotin-SRVKNLNSSRVPDLLV-OH (also called WT E peptide; Bt-WT peptide) [SARS-CoV-2 E WT peptide (Biotin-SRVKNLNSSRVPDLLV-COOH)] had a Kd of 29 nM.
